Where “and” joins values, the source holds several entries; their conditions need not be identical. Identical values can stand only once.
What was measured:
SC-K^d -15 (mouse) = SC-K^d -15 (mouse) (UniProt P01887)
[1] = target: K^d molecules isolated from the spleen of BALB/c mice (mouse, UniProt P01887); assay: direct peptide binding assay, peptide coated on plastic, 125I-labeled K^d

Row | Molecule | cpm bound (SC-K^d -15 (mouse)) | binding result [1]
1 | influenza NPR- 147-158 (peptide) | 214 cpm and 171 cpm | –
2 | TYQRTRALVTG [influenza NPR- 147-158] | – | no binding (tested: 10 µg/ml; pH 9.6)
